Target: T1, p50.2 KAR (human, UniProt P43631 22-304)
T1 construct: whole, on cells; also called KAR of D.F. NK cells; KAR p50.2
Assay: anti-CD158 immunoprecipitation from NK cell lysates, immunotransfer with anti-FcεRIγ

T1 sequence (P43631 22-304): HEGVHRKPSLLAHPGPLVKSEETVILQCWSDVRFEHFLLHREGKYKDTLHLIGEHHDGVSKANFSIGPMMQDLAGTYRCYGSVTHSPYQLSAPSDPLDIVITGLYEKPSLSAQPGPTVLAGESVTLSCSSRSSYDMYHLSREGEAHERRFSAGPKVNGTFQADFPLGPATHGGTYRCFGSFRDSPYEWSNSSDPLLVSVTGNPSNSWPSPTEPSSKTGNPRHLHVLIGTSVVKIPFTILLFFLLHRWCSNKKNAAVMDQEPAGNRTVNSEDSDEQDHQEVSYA

binding result: no binding
B1: FcεRIγ (other, human, UniProt P30273 19-86, looked up)
chain: LGEPQLCYILDAILFLYGIVLTLLYCRLKIQVRKAAITSYEKSDGVYTGLSTRNQETYETLKHEKPPQ
notes: whole, on cells; Endogenous protein in NK cell lysates; also called FcεRI gamma

— US20050130130A1 (INSTITUT NATIONAL DE LA SANTE ET DE LA RECHERCHE MEDICALE …, published 2005)
